Laboratory results published in patent publication US9540428B2, “Extracellular matrix heparin-binding domains” (EPFL-TTO, priority 2012, dated 2017).

B1: Fg β15-66: heparin-binding domain of human fibrinogen β chain aa15-66 (SEQ ID NO:8); construct with TG substrate and His tag, SEQ ID NO:2 (protein)
chain: GSNQEQVSPLGHRPLDKKREEAPSLRPAPPPISGGGYRARPAKAAATQKKVERKAPDAGGCGHHHHHH
modifications: GS linker, transglutaminase substrate, the Fg beta15-66, with a Histidine tag
B2: TNC III1-5: recombinant tenascin C fibronectin type III repeats 1-5 (E622 to A1074) with transglutaminase substrate NQEQVSPL and 6×His tag, SEQ ID NO:1 (protein)
chain: METDTLLLWVLLLWVPGSTGDAAQPAIEGRNQEQVSPLGGSEVSPPKDLVVTEVTEETVNLAWDNEMRVTEYLVVYTPTHEGGLEMQFRVPGDQTSTIIQELEPGVEYFIRVFAILENKKSIPVSARVATYLPAPEGLKFKSIKETSVEVEWDPLDIAFETWEIIFRNMNKEDEGEITKSLRRPETSYRQTGLAPGQEYEISLHIVKNNTRGPGLKRVTTTRLDAPSQIEVKDVTDTTALITWFKPLAEIDGIELTYGIKDVPGDRTTIDLTEDENQYSIGNLKPDTEYEVSLISRRGDMSSNPAKETFTTGLDAPRNLRRVSQTDNSITLEWRNGKAAIDSYRIKYAPISGGDHAEVDVPKSQQATTKTTLTGLRPGTEYGIGVSAVKEDKESNPATINAATELDTPKDLQVSETAETSLTLLWKTPLAKFDRYRLNYSLPTGQWVGVQLPRNTTSYVLRGLEPGQEYNVLLTAEKGRHKSKPARVKASTEQAGGGSHHHHHH
modifications: Tenascin III signal sequence with polyhistidine tag

Experiments:
skin wounds = test: Full-thickness back-skin wound healing in diabetic mice; type: in vivo; details: TG-PEG gels functionalized with TG-Fg β15-66 delivering FGF-2 and PlGF-2; 10 days
Protocol: Method: Full-thickness back-skin wounds were treated with combined FGF-2 and PlGF-2. Seven groups were tested: treatment (no ECM); fibrin only; fibrin containing cytokines; PEG only, PEG containing cytokines; PEG functionalized with TG-Fg β15-66, and PEG functionalized with TG-Fg β15-66 containing cytokines. After 10 days, wound closure and granulation tissue area were evaluated by histology. FIG. 20 details the results.

PDGF-AA = PDGF-AA (Homo sapiens, UniProt P04085); test: ELISA binding to coated PDGF-AA; details: 50 nM cytokine coated
Protocol: (§1) ELISA plates were coated with cytokines or BSA and further incubated with TNC III1-5 to analyze binding of TNC III1-5 to a wide variety of cytokines. […] Results are depicted in FIG. 3. Method: 50 nM of cytokine was coated for (1 hr, 37° C.). After blocking with 2% BSA (1 hr, RT). 100 nM TNC III1-5 was applied in PBST (0.05% tween, 0.1% bovine serum albumin (BSA)) (1 hr, RT). TNC III1-5 was detected with horseradish peroxidase (HRP)-anti-HIS in PBST (1 hr, RT) and developed with 3,3′,5,5′-tetramethylbenzidine (TMB), a soluble colorimetric HRP […]. Addition of sulfuric acid stop solution changes the color to yellow, enabling accurate measurement of the intensity at 450 nm using a spectrophotometer or plate reader. […] Heparin (4 μM) was added to TNC III1-5 to test the effect of blocking the heparin binding site of TNC III1-5, which has been defined as domain TNC III5 (Weber, Zimmermann, et al., 1995).

FGF-6 = target: T1, FGF-6 (Homo sapiens, UniProt P10767); test: ELISA binding to coated FGF-6; details: 50 nM cytokine coated
T1 sequence (P10767 38-208): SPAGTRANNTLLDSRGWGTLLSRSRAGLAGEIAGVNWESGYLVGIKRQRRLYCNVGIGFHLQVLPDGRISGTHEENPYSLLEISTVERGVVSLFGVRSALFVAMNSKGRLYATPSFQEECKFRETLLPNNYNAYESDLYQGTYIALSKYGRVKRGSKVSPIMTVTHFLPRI
Protocol: as §1

VEGF-C = target: T2, VEGF-C (Homo sapiens, UniProt P49767); test: ELISA binding to coated VEGF-C; details: 50 nM cytokine coated
T2 sequence (P49767 112-419): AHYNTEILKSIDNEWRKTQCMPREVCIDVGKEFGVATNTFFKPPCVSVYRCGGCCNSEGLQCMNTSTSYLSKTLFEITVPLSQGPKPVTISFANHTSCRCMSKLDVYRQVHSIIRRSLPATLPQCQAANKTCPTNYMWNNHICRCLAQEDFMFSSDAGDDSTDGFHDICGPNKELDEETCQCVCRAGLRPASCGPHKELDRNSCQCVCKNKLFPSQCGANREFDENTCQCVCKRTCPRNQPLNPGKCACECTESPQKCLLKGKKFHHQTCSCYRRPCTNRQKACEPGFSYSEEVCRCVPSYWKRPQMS
Protocol: as §1

Molecule | skin-wound healing (skin wounds) | binding to PDGF-AA (ELISA, signal above BSA background) (PDGF-AA) | binding to FGF-6 (ELISA, signal above BSA background) (FGF-6) | binding to VEGF-C (ELISA, signal above BSA background) (VEGF-C)
B1 | enhanced skin-wound healing |  |  | 
B2 |  | positive binding | positive binding | positive binding
